The values that follow come from publication PMC4477937, “Alpha-2-Macroglobulin Is Acutely Sensitive to Freezing and Lyophilization: Implications for Structural and Functional Studies” (PLoS ONE, 2015).

Series [1] has as its target Creatine phosphokinase (UniProt P00563 1-381). The series is described as follows: cell-based or functional assay.
Series [2] deals with the molecule itself. The series is described as follows: native gel or EMSA; native PAGE, NuPAGE 3–8% Tris-acetate, Tris-glycine running buffer, stained with InstantBlue; purified α2M after storage (4°C for months, -20°C, rapid freezing, lyophilization). Background: Mobility shift assays separate free from complexed probe on a gel.

Creatine phosphokinase, sequence (P00563 whole entry): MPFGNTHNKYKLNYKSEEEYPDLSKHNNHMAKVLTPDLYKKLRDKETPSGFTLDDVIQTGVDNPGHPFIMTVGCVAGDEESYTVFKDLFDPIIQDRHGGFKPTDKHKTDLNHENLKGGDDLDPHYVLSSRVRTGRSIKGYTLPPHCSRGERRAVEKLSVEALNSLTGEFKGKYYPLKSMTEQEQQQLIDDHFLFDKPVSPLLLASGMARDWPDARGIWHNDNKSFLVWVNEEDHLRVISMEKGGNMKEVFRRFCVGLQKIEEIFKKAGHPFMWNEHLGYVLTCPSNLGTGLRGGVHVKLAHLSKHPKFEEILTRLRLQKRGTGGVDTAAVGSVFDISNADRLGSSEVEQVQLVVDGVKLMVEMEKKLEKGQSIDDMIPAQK

B1: Alpha-2-macroglobulin (natural protein, human, UniProt P01023 24-1474, looked up)
chain: SVSGKPQYMVLVPSLLHTETTEKGCVLLSYLNETVTVSASLESVRGNRSLFTDLEAENDVLHCVAFAVPKSSSNEEVMFLTVQVKGPTQEFKKRTTVMVKNEDSLVFVQTDKSIYKPGQTVKFRVVSMDENFHPLNELIPLVYIQDPKGNRIAQWQSFQLEGGLKQFSFPLSSEPFQGSYKVVVQKKSGGRTEHPFTVEEFVLPKFEVQVTVPKIITILEEEMNVSVCGLYTYGKPVPGHVTVSICRKYSDASDCHGEDSQAFCEKFSGQLNSHGCFYQQVKTKVFQLKRKEYEMKLHTEAQIQEEGTVVELTGRQSSEITRTITKLSFVKVDSHFRQGIPFFGQVRLVDGKGVPIPNKVIFIRGNEANYYSNATTDEHGLVQFSINTTNVMGTSLTVRVNYKDRSPCYGYQWVSEEHEEAHHTAYLVFSPSKSFVHLEPMSHELPCGHTQTVQAHYILNGGTLLGLKKLSFYYLIMAKGGIVRTGTHGLLVKQEDMKGHFSISIPVKSDIAPVARLLIYAVLPTGDVIGDSAKYDVENCLANKVDLSFSPSQSLPASHAHLRVTAAPQSVCALRAVDQSVLLMKPDAELSASSVYNLLPEKDLTGFPGPLNDQDNEDCINRHNVYINGITYTPVSSTNEKDMYSFLEDMGLKAFTNSKIRKPKMCPQLQQYEMHGPEGLRVGFYESDVMGRGHARLVHVEEPHTETVRKYFPETWIWDLVVVNSAGVAEVGVTVPDTITEWKAGAFCLSEDAGLGISSTASLRAFQPFFVELTMPYSVIRGEAFTLKATVLNYLPKCIRVSVQLEASPAFLAVPVEKEQAPHCICANGRQTVSWAVTPKSLGNVNFTVSAEALESQELCGTEVPSVPEHGRKDTVIKPLLVEPEGLEKETTFNSLLCPSGGEVSEELSLKLPPNVVEESARASVSVLGDILGSAMQNTQNLLQMPYGCGEQNMVLFAPNIYVLDYLNETQQLTPEIKSKAIGYLNTGYQRQLNYKHYDGSYSTFGERYGRNQGNTWLTAFVLKTFAQARAYIFIDEAHITQALIWLSQRQKDNGCFRSSGSLLNNAIKGGVEDEVTLSAYITIALLEIPLTVTHPVVRNALFCLESAWKTAQEGDHGSHVYTKALLAYAFALAGNQDKRKEVLKSLNEEAVKKDNSVHWERPQKPKAPVGHFYEPQAPSAEVEMTSYVLLAYLTAQPAPTSEDLTSATNIVKWITKQQNAQGGFSSTQDTVVALHALSKYGAATFTRTGKAAQVTIQSSGTFSSKFQVDNNNRLLLQQVSLPELPGEYSMKVTGEGCVYLQTSLKYNILPEKEEFPFALGVQTLPQTCDEPKAHTSFQISLSVSYTGSRSASNMAIVDVKMVSGFIPLKPTVKMLERSNHVSRTEVSSNHVLIYLDKVSNQTLSLFFTVLQDVPVRDLKPAIVKVYDYYETDEFAIAEYNAPCSKDLGNA
notes: alpha-2-macroglobulin, human, from blood plasma; 720 kDa homotetramer of four 180 kDa subunits, paired by disulfide bonds into dimers; Storage changes the conformation (native, transformed, dimers, higher molecular weight species); also called α2M; native α2M; source: purified from human blood plasma (Zn-charged HiTrap chelating column, Sephacryl S-300 gel filtration)
On to B1, for which the “decrease in turbidity (absorbance at 595 nm) of CPK (5 μM) at 43°C over 8 hrs with α2M at a molar ratio of α2M-to-CPK of 1:15; α2M rapidly frozen in liquid nitrogen and stored at -20°C for 1 month” value in series [1] was about 50%. Moreover, the binding result in series [2] is recorded as “binds”.
